According to patent US8541373B2, “BChE albumin fusions for the treatment of cocaine abuse” (priority 2009, dated 2013):

Tested on: cocaine
Experiment: Plasma cocaine, benzoylecgonine and ecgonine methyl ester (LC-MS) and cocaine PK after IV cocaine post-AlbuBChE
Format: in vivo, cynomolgus monkeys
Protocol: Blood was placed into K2EDTA blood collection tubes with esterase inhibitor diisopropylfluorophosphate (DFP). Tubes were inverted several times and placed on wet ice upon collection. Samples were centrifuged at 2-8° C. within 45 minutes of collection. The resultant plasma was recovered and a single 200 μL aliquot of plasma was placed into polypropylene tubes. Plasma samples were frozen over dry ice and stored at −75±15° C.
The following outline describes the LC-MS-based assay employed for the measurement of cocaine in plasma samples. Prior to MS analysis, plasma samples, calibration standards and controls were extracted using supported liquid extraction (SLE-ISOLUTE, Biotage). Twenty-five microliters of samples (25 μL) received 150 μl of 5% Ammonium hydroxide and 25 μl internal standard solution (Cocaine-d3). After mixing and transfer to SLE plate, samples were eluted with methylene chloride and evaporated to dryness. After resuspension in 50 μl of reconstitution solution—5% ACM in 10 mM ammonium acetate in water, 10 μl was injected onto Thermo Hypercarb column at 0.5 ml/min. Mobile phase was biphasic. Mass spectrophotometric detection was performed using Api 4000, APCI positive interface and Multiple Reaction Monitoring (MRM). Plasma concentrations of cocaine, benzoylecgonine and ecgonine methyl ester were determined using this assay.
When the data permits, pharmacokinetic parameter values for cocaine and its metabolites were determined using plasma concentration-times profiles for individual animals at all the study days of cocaine administration. […] Specifically the model for non-compartmental analysis with IV bolus input for cocaine and extravascular input for the metabolites.

[1] = 1 mg/kg IM, cocaine 1 mg/kg IV 96 hr post-AlbuBChE, 20 min after cocaine
[2] = 1 mg/kg IM, cocaine 1 mg/kg IV 96 hr post-AlbuBChE, 30 min after cocaine
[3] = 1 mg/kg IM, cocaine 1 mg/kg IV 96 hr post-AlbuBChE, 40 min after cocaine
[4] = 1 mg/kg IM, cocaine 1 mg/kg IV 96 hr post-AlbuBChE, 60 min after cocaine
[5] = 1 mg/kg IM, cocaine 1 mg/kg IV 120 hr post-AlbuBChE
[6] = 1 mg/kg IM, cocaine 1 mg/kg IV 120 hr post-AlbuBChE, 5 min after cocaine
[7] = 1 mg/kg IM, cocaine 1 mg/kg IV 120 hr post-AlbuBChE, 10 min after cocaine
[8] = 1 mg/kg IM, cocaine 1 mg/kg IV 120 hr post-AlbuBChE, 15 min after cocaine
[9] = 1 mg/kg IM, cocaine 1 mg/kg IV 120 hr post-AlbuBChE, 20 min after cocaine
[10] = 1 mg/kg IM, cocaine 1 mg/kg IV 120 hr post-AlbuBChE, 30 min after cocaine
[11] = 1 mg/kg IM, cocaine 1 mg/kg IV 120 hr post-AlbuBChE, 40 min after cocaine
[12] = 1 mg/kg IM, cocaine 1 mg/kg IV 120 hr post-AlbuBChE, 60 min after cocaine
[13] = 1 mg/kg IM, cocaine 1 mg/kg IV 240 hr post-AlbuBChE
[14] = 1 mg/kg IM, cocaine 1 mg/kg IV 240 hr post-AlbuBChE, 5 min after cocaine
[15] = 1 mg/kg IM, cocaine 1 mg/kg IV 240 hr post-AlbuBChE, 10 min after cocaine
[16] = 1 mg/kg IM, cocaine 1 mg/kg IV 240 hr post-AlbuBChE, 15 min after cocaine
[17] = 1 mg/kg IM, cocaine 1 mg/kg IV 240 hr post-AlbuBChE, 20 min after cocaine
[18] = 1 mg/kg IM, cocaine 1 mg/kg IV 240 hr post-AlbuBChE, 30 min after cocaine
[19] = 1 mg/kg IM, cocaine 1 mg/kg IV 240 hr post-AlbuBChE, 40 min after cocaine
[20] = 1 mg/kg IM, cocaine 1 mg/kg IV 240 hr post-AlbuBChE, 60 min after cocaine
[21] = 5 mg/kg IM, cocaine 1 mg/kg IV 2 hr post-AlbuBChE
[22] = 5 mg/kg IM, cocaine 1 mg/kg IV 2 hr post-AlbuBChE, 5 min after cocaine
[23] = 5 mg/kg IM, cocaine 1 mg/kg IV 2 hr post-AlbuBChE, 10 min after cocaine
[24] = 5 mg/kg IM, cocaine 1 mg/kg IV 2 hr post-AlbuBChE, 15 min after cocaine
[25] = 5 mg/kg IM, cocaine 1 mg/kg IV 2 hr post-AlbuBChE, 20 min after cocaine
[26] = 5 mg/kg IM, cocaine 1 mg/kg IV 2 hr post-AlbuBChE, 30 min after cocaine
[27] = 5 mg/kg IM, cocaine 1 mg/kg IV 2 hr post-AlbuBChE, 40 min after cocaine
[28] = 5 mg/kg IM, cocaine 1 mg/kg IV 2 hr post-AlbuBChE, 60 min after cocaine
[29] = 5 mg/kg IM, cocaine 1 mg/kg IV 48 hr post-AlbuBChE
[30] = 5 mg/kg IM, cocaine 1 mg/kg IV 48 hr post-AlbuBChE, 5 min after cocaine

AlbuBChE
Ecgonine methyl ester plasma concentration (mean) [1]: 47.3 ng/mL
Mean benzoylecgonine plasma concentration [1]: 43.7 ng/mL
Mean cocaine plasma concentration [1]: 208 ng/mL
Ecgonine methyl ester plasma concentration (mean) [2]: 57.3 ng/mL
Mean benzoylecgonine plasma concentration [2]: 47.4 ng/mL
Mean cocaine plasma concentration [2]: 162 ng/mL
Ecgonine methyl ester plasma concentration (mean) [3]: 64.4 ng/mL
Mean benzoylecgonine plasma concentration [3]: 46.7 ng/mL
Mean cocaine plasma concentration [3]: 123 ng/mL
Ecgonine methyl ester plasma concentration (mean) [4]: 59.9 ng/mL
Mean benzoylecgonine plasma concentration [4]: 49.6 ng/mL
Mean cocaine plasma concentration [4]: 64.8 ng/mL
Mean benzoylecgonine AUC(0-t) [5]: 2809 ng·min/mL
Mean cocaine AUC % Extrap [5]: 22.4%
Mean cocaine AUC(0-t) [5]: 11526 ng·min/mL
Mean cocaine AUC(0-∞) [5]: 14838 ng·min/mL
Mean cocaine C0 [5]: 491 ng/mL
Mean cocaine CI [5]: 67.4 mL/min/kg
Mean cocaine Vss [5]: 2.687 L/kg
Mean cocaine t½ [5]: 28.6 min
Ecgonine methyl ester plasma concentration (mean) [6]: 42.7 ng/mL
Mean benzoylecgonine plasma concentration [6]: 37.2 ng/mL
Mean cocaine plasma concentration [6]: 356 ng/mL
Ecgonine methyl ester plasma concentration (mean) [7]: 27.4 ng/mL
Mean benzoylecgonine plasma concentration [7]: 38.9 ng/mL
Mean cocaine plasma concentration [7]: 263 ng/mL
Ecgonine methyl ester plasma concentration (mean) [8]: 37.8 ng/mL
Mean benzoylecgonine plasma concentration [8]: 42.2 ng/mL
Mean cocaine plasma concentration [8]: 233 ng/mL
Ecgonine methyl ester plasma concentration (mean) [9]: 31.8 ng/mL
Mean benzoylecgonine plasma concentration [9]: 40.2 ng/mL
Mean cocaine plasma concentration [9]: 202 ng/mL
Ecgonine methyl ester plasma concentration (mean) [10]: 104 ng/mL
Mean benzoylecgonine plasma concentration [10]: 51.3 ng/mL
Mean cocaine plasma concentration [10]: 161 ng/mL
Ecgonine methyl ester plasma concentration (mean) [11]: 68.6 ng/mL
Mean benzoylecgonine plasma concentration [11]: 50.9 ng/mL
Mean cocaine plasma concentration [11]: 141 ng/mL
Ecgonine methyl ester plasma concentration (mean) [12]: 76.8 ng/mL
Mean benzoylecgonine plasma concentration [12]: 54.4 ng/mL
Mean cocaine plasma concentration [12]: 79.7 ng/mL
Mean benzoylecgonine AUC(0-t) [13]: 3660 ng·min/mL
Mean cocaine AUC % Extrap [13]: 26.7%
Mean cocaine AUC(0-t) [13]: 14364 ng·min/mL
Mean cocaine AUC(0-∞) [13]: 19623 ng·min/mL
Mean cocaine C0 [13]: 467 ng/mL
Mean cocaine CI [13]: 51.1 mL/min/kg
Mean cocaine Vss [13]: 2.288 L/kg
Mean cocaine t½ [13]: 31.0 min
Ecgonine methyl ester plasma concentration (mean) [14]: 92.7 ng/mL
Mean benzoylecgonine plasma concentration [14]: 40.0 ng/mL
Mean cocaine plasma concentration [14]: 397 ng/mL
Ecgonine methyl ester plasma concentration (mean) [15]: 21.9 ng/mL
Mean benzoylecgonine plasma concentration [15]: 47.2 ng/mL
Mean cocaine plasma concentration [15]: 340 ng/mL
Ecgonine methyl ester plasma concentration (mean) [16]: 25.9 ng/mL
Mean benzoylecgonine plasma concentration [16]: 55.0 ng/mL
Mean cocaine plasma concentration [16]: 300 ng/mL
Ecgonine methyl ester plasma concentration (mean) [17]: 29.5 ng/mL
Mean benzoylecgonine plasma concentration [17]: 56.7 ng/mL
Mean cocaine plasma concentration [17]: 259 ng/mL
Ecgonine methyl ester plasma concentration (mean) [18]: 41.3 ng/mL
Mean benzoylecgonine plasma concentration [18]: 64.6 ng/mL
Mean cocaine plasma concentration [18]: 218 ng/mL
Ecgonine methyl ester plasma concentration (mean) [19]: 51.8 ng/mL
Mean benzoylecgonine plasma concentration [19]: 68.3 ng/mL
Mean cocaine plasma concentration [19]: 181 ng/mL
Ecgonine methyl ester plasma concentration (mean) [20]: 54.3 ng/mL
Mean benzoylecgonine plasma concentration [20]: 75.2 ng/mL
Mean cocaine plasma concentration [20]: 117 ng/mL
Mean benzoylecgonine AUC(0-t) [21]: 1405 ng·min/mL
Mean cocaine AUC(0-t) [21]: 3289 ng·min/mL
Mean cocaine C0 [21]: 271 ng/mL
Ecgonine methyl ester plasma concentration (mean) [22]: 337 ng/mL
Mean benzoylecgonine plasma concentration [22]: 22.3 ng/mL
Mean cocaine plasma concentration [22]: 145 ng/mL
Ecgonine methyl ester plasma concentration (mean) [23]: 321 ng/mL
Mean benzoylecgonine plasma concentration [23]: 23.7 ng/mL
Mean cocaine plasma concentration [23]: 77.9 ng/mL
Ecgonine methyl ester plasma concentration (mean) [24]: 363 ng/mL
Mean benzoylecgonine plasma concentration [24]: 22.0 ng/mL
Mean cocaine plasma concentration [24]: 43.5 ng/mL
Ecgonine methyl ester plasma concentration (mean) [25]: 331 ng/mL
Mean benzoylecgonine plasma concentration [25]: 22.9 ng/mL
Mean cocaine plasma concentration [25]: 12.8 ng/mL
Ecgonine methyl ester plasma concentration (mean) [26]: 266 ng/mL
Mean benzoylecgonine plasma concentration [26]: 31.1 ng/mL
Mean cocaine plasma concentration [26]: 110 ng/mL
Ecgonine methyl ester plasma concentration (mean) [27]: 308 ng/mL
Mean benzoylecgonine plasma concentration [27]: 21.3 ng/mL
Mean cocaine plasma concentration [27]: 4.96 ng/mL
Ecgonine methyl ester plasma concentration (mean) [28]: 248 ng/mL
Mean benzoylecgonine plasma concentration [28]: 20.1 ng/mL
Mean cocaine plasma concentration [28]: 2.26 ng/mL
Mean benzoylecgonine AUC(0-t) [29]: 1441 ng·min/mL
Mean cocaine AUC % Extrap [29]: 3.0%
Mean cocaine AUC(0-t) [29]: 3015 ng·min/mL
Mean cocaine AUC(0-∞) [29]: 3110 ng·min/mL
Mean cocaine C0 [29]: 177 ng/mL
Mean cocaine CI [29]: 325 mL/min/kg
Mean cocaine Vss [29]: 5.729 L/kg
Mean cocaine t½ [29]: 11.4 min
Ecgonine methyl ester plasma concentration (mean) [30]: 119 ng/mL
Mean benzoylecgonine plasma concentration [30]: 20.0 ng/mL
Mean cocaine plasma concentration [30]: 126 ng/mL
